Experiment [1] deals with T1, Recombinant Human IL-17 (human, UniProt Q16552 20-155, limits assumed).
T1 construct: Bought reagent
T1 sequence (looked up): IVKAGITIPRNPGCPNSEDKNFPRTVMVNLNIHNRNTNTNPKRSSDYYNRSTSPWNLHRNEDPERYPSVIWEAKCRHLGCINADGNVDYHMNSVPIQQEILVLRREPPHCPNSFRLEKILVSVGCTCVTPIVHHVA
Nature of the experiment: Biacore SPR. As to the method: (§1) The BIACORE assay (Biacore, Inc, Piscataway, N.J.) determines the affinity of antibodies or DVD-Ig with kinetic measurements of on-rate and off-rate constants. Binding of antibodies or DVD-Ig to a target antigen (for example, a purified recombinant target antigen) was determined by surface plasmon resonance-based measurements with a Biacore® 1000 or 3000 instrument (Biacore® AB, Uppsala, Sweden) using running HBS-EP (10 mM HEPES [pH 7.4], 150 mM NaCl, 3 mM EDTA, and 0.005% surfactant P20) at 25° C. All chemicals were obtained from Biacore® AB (Uppsala, Sweden) or otherwise from a different source as described in the text. For example, approximately 5000 RU of goat anti-mouse IgG, (Fcγ), fragment specific polyclonal antibody (Pierce Biotechnology Inc, Rockford, Ill.) diluted in 10 mM sodium acetate (pH 4.5) was directly immobilized across a CM5 research grade biosensor chip using a standard amine coupling kit according to manufacturer's instructions and procedures at 25 μg/ml. Unreacted moieties on the biosensor surface were blocked with ethanolamine. Modified carboxymethyl dextran surface in flowcell 2 and 4 was used as a reaction surface. Unmodified carboxymethyl dextran without goat anti-mouse IgG in flow cell 1 and 3 was used as the reference surface. For kinetic analysis, rate equations derived from the 1:1 Langmuir binding model were fitted simultaneously to association and dissociation phases of all eight injections (using global fit analysis) with the use of Biaevaluation 4.0.1 software. Purified antibodies or DVD-Ig were diluted in HEPES-buffered saline for capture across goat anti-mouse IgG specific reaction surfaces. Antibodies or DVD-Ig to be captured as a ligand (25 μg/ml) were injected over reaction matrices at a flow rate of 5 μl/min. The association and dissociation rate constants, kₒₙ (M⁻¹s⁻¹) and koff (s⁻¹) were determined under a continuous flow rate of 25 μl/min. Rate constants were derived by making kinetic binding measurements at different antigen concentrations ranging from 10−200 nM. The equilibrium dissociation constant (M) of the reaction between antibodies or DVD-Igs and the target antigen was then calculated from the kinetic rate constants by the following formula: KD=koff/kₒₙ. Binding was recorded as a function of time and kinetic rate constants are calculated.
(In general: Surface plasmon resonance follows binding to a sensor surface in real time, without labels.)

Experiment [2] has as its target T1, Recombinant Human IL-17. The experiment is described as follows: cell-based or functional assay.
Experiment [3] addresses T1, Recombinant Human IL-17. The experiment is described as follows: Biacore SPR; later run, parent printed with DVD1639-DVD1648; kon 4.70E+06, koff 8.50E-05. As to the method: (§2) The BIACORE assay (Biacore, Inc, Piscataway, N.J.) determines the affinity of antibodies or DVD-Ig with kinetic measurements of on-rate and off-rate constants. Binding of antibodies or DVD-Ig to a target antigen (for example, a purified recombinant target antigen) was determined by surface plasmon resonance-based measurements with a Biacore® 1000 or 3000 instrument (Biacore® AB, Uppsala, Sweden) using running HBS-EP (10 mM HEPES [pH 7.4], 150 mM NaCl, 3 mM EDTA, and 0.005% surfactant P20) at 25° C. All chemicals were obtained from Biacore® AB (Uppsala, Sweden) or otherwise from a different source as described in the text. […] The association and dissociation rate constants, kₒₙ (M⁻¹s⁻¹) and koff (s⁻¹) were determined under a continuous flow rate of 25 μl/min. […] The equilibrium dissociation constant (M) of the reaction between antibodies or DVD-Igs and the target antigen was then calculated from the kinetic rate constants by the following formula: KD=koff/kₒₙ. Binding was recorded as a function of time and kinetic rate constants are calculated.

Experiment [4] addresses T2, Recombinant Human IL-17 (human, UniProt Q16552 20-155, limits assumed).
T2 construct: bought reagent
T2 sequence (looked up): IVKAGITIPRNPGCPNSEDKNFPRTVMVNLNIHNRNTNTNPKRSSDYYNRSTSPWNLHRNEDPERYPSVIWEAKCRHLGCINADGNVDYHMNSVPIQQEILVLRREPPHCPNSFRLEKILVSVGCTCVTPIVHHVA
Nature of the experiment: Biacore SPR. As to the method: as §1

The target in experiment [5] is T2, Recombinant Human IL-17. The experiment is described as follows: Biacore SPR; first run, parent printed with DVD1282-DVD1291; kon 2.80E+03, koff 2.40E-05. As to the method:
as §2

The text below walks through data of patent US20120034160A1 (AbbVie / Abbott, published 2012).

B1: AB275 (antibody, human IgG1, kappa, V domains shown)
VH: EVQLVQSGAEVKKPGESVKISCKASGGSFRSYGISWVRQAPGQGLEWMGGITHFFGITDYAQKFQGRVTITADESTTTAYMELSGLTSDDTAVYYCAREPNDFWNGYYDTHDFDSWGQGTTVTVSS
VL: EIVLTQSPDFQSVTPKEKVTITCRASQNIGSELHWYQQKPDQSPKLLIKYASHSISGVPSRFSGSGSGTDFTLTINGLEAEDAATYYCHQSDTLPHTFGQGTKVDIKR
notes: Parent antibody
One may read the koff as a measure of how fast the partners let go of each other. In general, kon refers to a measure of how fast the partners come together. In general, Kd refers to the equilibrium constant for the complex coming apart. For the molecule B1, in experiment [1], the koff came to 8.5e-05 s⁻¹ and the kon turned out to be 4.7e+06 M⁻¹ s⁻¹. For the same molecule, in experiment [2], the “IL-17 Neutralization Assay EC50” value worked out at 0.0032 nM. Besides, the Kd in experiment [3] is 0.018 nM.

B2: AB275 (antibody, human IgG1, kappa, V domains shown)
VH: EVQLVQSGAEVKKPGESVKISCKASGGSFRSYGISWVRQAPGQGLEWMGGITHFFGITDYAQKFQGRVTITADESTTTAYMELSGLTSDDTAVYYCAREPNDFWNGYYDTHDFDSWGQGTTVTVSS
VL: EIVLTQSPDFQSVTPKEKVTITCRASQNIGSELHWYQQKPDQSPKLLIKYASHSISGVPSRFSGSGSGTDFTLTINGLEAEDAATYYCHQSDTLPHTFGQGTKVDIKR
notes: constants by vectors: V1 wt hIgG1, V2 kappa
Take B2: the Kd was found to be 0.019 nM in experiment [4] and 8.8 nM in experiment [5].
